Laboratory results reported in US10800847.
Each block holds one substance with its values, some of them ahead of it.

Legend:
HLA-B*1502 (B75) (human) = assay: Luminex regular beads (#7), IVIg diluted 1:8
HLA-B*1402 (B65) (human) [1] = assay: Luminex regular beads (#7), IVIg diluted 1:8
HLA-B*1302 (B13) (human) [2] = assay: Luminex regular beads (#7), IVIg diluted 1:8
[3] = molecular target: Serum albumin on negative control beads (HSA/BSA) (human or bovine); assay: Luminex regular beads (#7), IVIg diluted 1:8
HLA-B*1510 (B71) (human) [4] = assay: Luminex regular beads (#7), IVIg diluted 1:8
HLA-B*0702 (B7) (human) = assay: Luminex regular beads (#7), IVIg diluted 1:8
HLA-B*1511 (B75) (human) = assay: Luminex regular beads (#7), IVIg diluted 1:8
HLA-B*1301 (B13) (human) [5] = assay: Luminex regular beads (#7), IVIg diluted 1:8
HLA-B*1513 (B77) (human) [6] = assay: Luminex regular beads (#7), IVIg diluted 1:8
HLA-B*0801 (B8) (human) = assay: Luminex regular beads (#7), IVIg diluted 1:8
HLA-B*1503 (B72) (human) = assay: Luminex regular beads (#7), IVIg diluted 1:8
HLA-B*1401 (B64) (human) [7] = assay: Luminex regular beads (#7), IVIg diluted 1:8
HLA-B*1516 (B63) (human) = assay: Luminex regular beads (#7), IVIg diluted 1:8
HLA-B*1512 (B76) (human) = assay: Luminex regular beads (#7), IVIg diluted 1:8
HLA-B*1801 (B18) (human) = assay: Luminex regular beads (#7), IVIg diluted 1:8
[8] = molecular target: HLA-A*3001 (A30) single antigen on beads (human); assay: Luminex single-antigen regular beads (#7), IVIg 1:8
[9] = molecular target: HLA-A*2902 (A29) single antigen on beads (human); assay: as above
[10] = molecular target: HLA-A*6801 (A68) single antigen on beads (human); assay: as above
[11] = molecular target: HLA-A*3301 (A33) single antigen on beads (human); assay: as above
[12] = molecular target: HLA-A*3601 (A36) single antigen on beads (human); assay: as above
[13] = molecular target: HLA-A*3402 (A34) single antigen on beads (human); assay: as above
[14] = molecular target: HLA-A*3401 (A34) single antigen on beads (human); assay: as above
[15] = molecular target: HLA-A*3101 (A31) single antigen on beads (human); assay: as above
[16] = molecular target: HLA-A*3201 (A32) single antigen on beads (human); assay: as above
[17] = molecular target: HLA-A*3002 (A30) single antigen on beads (human); assay: as above
[18] = molecular target: HLA-A*6601 (A66) single antigen on beads (human); assay: as above
[19] = molecular target: HLA-A*6602 (A66) single antigen on beads (human); assay: as above
[20] = molecular target: HLA-A*3303 (A33) single antigen on beads (human); assay: as above
HLA-B*1402 (B65) (human) [21] = assay: iBead MFI against regular-bead MFI, IVIg diluted 1:8
[22] = molecular target: Serum albumin on negative control beads (HSA/BSA) (human or bovine); assay: as above
HLA-B*1510 (B71) (human) [23] = assay: as above
HLA-B*1513 (B77) (human) [24] = assay: as above
HLA-B*1401 (B64) (human) [25] = assay: as above
[26] = molecular target: HLA-Cw*1601 (Cw16) (human); assay: Luminex, iBeads (#6), 1:8
[27] = molecular target: HLA-Cw*0303 (Cw9) (human); assay: Luminex, iBeads (#6), 1:8
[28] = molecular target: HLA-Cw*0302 (Cw10) (human); assay: Luminex, iBeads (#6), 1:8
HLA-B*8201 (B82) (human) = assay: Luminex, iBeads (#6), 1:8
[29] = molecular target: HLA-Cw*1203 (Cw12) (human); assay: Luminex, iBeads (#6), 1:8
[30] = molecular target: HLA-Cw*0304 (Cw10) (human); assay: Luminex, iBeads (#6), 1:8
[31] = molecular target: Albumin (negative control beads) (human or bovine); assay: Luminex, iBeads (#6), 1:8
[32] = molecular target: HLA-Cw*1701 (Cw17) (human); assay: Luminex, iBeads (#6), 1:8
[33] = molecular target: HLA-Cw*0501 (Cw5) (human); assay: Luminex, iBeads (#6), 1:8
[34] = molecular target: HLA-Cw*1502 (Cw15) (human); assay: Luminex, iBeads (#6), 1:8
[35] = molecular target: HLA-Cw*1402 (Cw14) (human); assay: Luminex, iBeads (#6), 1:8
[36] = molecular target: HLA-Cw*0801 (Cw8) (human); assay: Luminex, iBeads (#6), 1:8
HLA-B*1302 (B13) (human) [37] = assay: iBead MFI against regular-bead MFI, IVIg diluted 1:8
HLA-B*1301 (B13) (human) [38] = assay: as above

- MFI (HLA-B*1502 (B75) (human)): 526 MFI
- MFI (HLA-B*1402 (B65) (human) [1]): 670 MFI
- MFI (HLA-B*1302 (B13) (human) [2]): 2220 MFI
- MFI [3]: 3790 MFI
- MFI (HLA-B*1510 (B71) (human) [4]): 857 MFI
- MFI (HLA-B*0702 (B7) (human)): 2220 MFI
- MFI (HLA-B*1511 (B75) (human)): 2820 MFI
- MFI (HLA-B*1301 (B13) (human) [5]): 2240 MFI
- MFI (HLA-B*1513 (B77) (human) [6]): 1240 MFI
- MFI (HLA-B*0801 (B8) (human)): 884 MFI
- MFI (HLA-B*1503 (B72) (human)): 689 MFI
- MFI (HLA-B*1401 (B64) (human) [7]): 1750 MFI
- MFI (HLA-B*1516 (B63) (human)): 3540 MFI
- MFI (HLA-B*1512 (B76) (human)): 2660 MFI
- MFI (HLA-B*1801 (B18) (human)): 0 MFI
- MFI [8]: 924 MFI
- MFI [9]: 991 MFI
- MFI [10]: 192 MFI
- MFI [11]: 1120 MFI
- MFI [12]: 564 MFI
- MFI [13]: 684 MFI
- MFI [14]: 3040 MFI
- MFI [15]: 121 MFI
- MFI [16]: 856 MFI
- MFI [17]: 1050 MFI
- MFI [18]: 1410 MFI
- MFI [19]: 2360 MFI
- MFI [20]: 322 MFI
- Difference % (iBead vs regular bead) (HLA-B*1402 (B65) (human) [21]): -100%
- Difference % (iBead vs regular bead) [22]: 33%
- Difference % (iBead vs regular bead) (HLA-B*1510 (B71) (human) [23]): -43%
- Difference % (iBead vs regular bead) (HLA-B*1513 (B77) (human) [24]): -27%
- Difference % (iBead vs regular bead) (HLA-B*1401 (B64) (human) [25]): -85%
- MFI [26]: 2950 MFI
- MFI [27]: 2610 MFI
- MFI [28]: 2380 MFI
- MFI (HLA-B*8201 (B82) (human)): 4260 MFI
- MFI [29]: 2660 MFI
- MFI [30]: 2750 MFI
- MFI [31]: 5030 MFI
- MFI [32]: 9610 MFI
- MFI [33]: 6350 MFI
- MFI [34]: 7670 MFI
- MFI [35]: 1820 MFI
- MFI [36]: 1940 MFI
Substance: IVIg GamaSTAN S/D (Talecris Biotherapeutics, USA) (antibody)

- MFI (HLA-B*1502 (B75) (human)): 1520 MFI
- MFI (HLA-B*1402 (B65) (human) [1]): 2250 MFI
- MFI (HLA-B*1302 (B13) (human) [2]): 3100 MFI
- MFI [3]: 10800 MFI
- MFI (HLA-B*1510 (B71) (human) [4]): 1430 MFI
- MFI (HLA-B*0702 (B7) (human)): 1540 MFI
- MFI (HLA-B*1511 (B75) (human)): 4060 MFI
- MFI (HLA-B*1513 (B77) (human) [6]): 4270 MFI
- MFI (HLA-B*1503 (B72) (human)): 2380 MFI
- MFI (HLA-B*1516 (B63) (human)): 3760 MFI
- MFI (HLA-B*1512 (B76) (human)): 816 MFI
- MFI [9]: 1750 MFI
- MFI [10]: 0 MFI
- MFI [11]: 1690 MFI
- MFI [12]: 916 MFI
- MFI [13]: 0 MFI
- MFI [14]: 3540 MFI
- MFI [15]: 166 MFI
- MFI [16]: 875 MFI
- MFI [17]: 896 MFI
- MFI [18]: 648 MFI
- MFI [20]: 476 MFI
- Difference % (iBead vs regular bead) (HLA-B*1302 (B13) (human) [37]): -45%
- Difference % (iBead vs regular bead) (HLA-B*1510 (B71) (human) [23]): 1%
- Difference % (iBead vs regular bead) (HLA-B*1301 (B13) (human) [38]): -31%
- Difference % (iBead vs regular bead) (HLA-B*1513 (B77) (human) [24]): -45%
- Difference % (iBead vs regular bead) (HLA-B*1401 (B64) (human) [25]): -33%
- MFI [26]: 4070 MFI
- MFI [27]: 4290 MFI
- MFI [28]: 4870 MFI
- MFI (HLA-B*8201 (B82) (human)): 2730 MFI
- MFI [29]: 4810 MFI
- MFI [30]: 4140 MFI
- MFI [31]: 7150 MFI
- MFI [32]: 6150 MFI
- MFI [33]: 4010 MFI
- MFI [34]: 3590 MFI
- MFI [35]: 3970 MFI
Substance: IVIg Gamunex-C Lot NKLG1 (antibody)
